Three molecules from paper PMC13182210, “Time‐Resolved Native Mass Spectrometry Reveals Reversible Light‐Driven Oligomerization of Arabidopsis Cryptochrome 1 and Its Antagonism by BIC1” (Angewandte Chemie (International Ed. in English), 2026) can be followed below.

The term stoichiometry N denotes the number of molecules, sites or subunits per partner or assembly. Usually Kd stands for the equilibrium constant for the complex coming apart. Read a low Kd as tighter binding.

B1: Arabidopsis thaliana cryptochrome 1 photolyase homology region (CRY1-PHR) (domain or fragment, UniProt Q43125 1-509, looked up)
chain: MSGSVSGCGSGGCSIVWFRRDLRVEDNPALAAAVRAGPVIALFVWAPEEEGHYHPGRVSRWWLKNSLAQLDSSLRSLGTCLITKRSTDSVASLLDVVKSTGASQIFFNHLYDPLSLVRDHRAKDVLTAQGIAVRSFNADLLYEPWEVTDELGRPFSMFAAFWERCLSMPYDPESPLLPPKKIISGDVSKCVADPLVFEDDSEKGSNALLARAWSPGWSNGDKALTTFINGPLLEYSKNRRKADSATTSFLSPHLHFGEVSVRKVFHLVRIKQVAWANEGNEAGEESVNLFLKSIGLREYSRYISFNHPYSHERPLLGHLKFFPWAVDENYFKAWRQGRTGYPLVDAGMRELWATGWLHDRIRVVVSSFFVKVLQLPWRWGMKYFWDTLLDADLESDALGWQYITGTLPDSREFDRIDNPQFEGYKFDPNGEYVRRWLPELSRLPTDWIHHPWNAPESVLQAAGIELGSNYPLPIVGLDEAKARLHEALSQMWQLEAASRAAIENGSEEG
notes: Cryptochrome 1 of Arabidopsis thaliana, photolyase homology region (PHR) domain; Construct limits, tags and host are not in the main text and probably stand in the Supporting Information; The oligomeric state depends on light: mostly monomer in the dark, tetramer under blue light; also called CRY1 PHR domain; wild-type CRY1; source: recombinant, purified

Data set [1] has as its target CRY1^L407F mutant of the Arabidopsis CRY1 PHR domain (Arabidopsis thaliana) (UniProt Q43125). As to the kind of experiment: SEC; analytical size exclusion chromatography, samples kept in darkness. In general terms: Size exclusion chromatography separates by hydrodynamic size, large species first.
For data set [2] the target is unchanged. As to the kind of experiment: native MS; LILBID-MS in darkness; CRY1 alone or with BIC1 in an equimolar ratio.
Data set [3] concerns the molecule itself. As to the kind of experiment: native MS; nESI-MS with a blue-light LED on the sample, static and time-resolved, room temperature, no ATP; two-step reversible kinetic model monomer to dimer to tetramer.
Data set [4] concerns the molecule itself. In words: native MS; LILBID-MS with a blue-light LED on the sample throughout; CRY1 alone, with BIC1 in an equimolar ratio, or BIC1 added to pre-illuminated tetrameric CRY1.
Data set [5] deals with the molecule itself. In words: native MS; nESI-MS with a blue-light LED on the sample, static and time-resolved, with 100 µM ATP; two-step reversible kinetic model monomer to dimer to tetramer.
For data set [6], the target named is CRY1^L407F mutant of the Arabidopsis CRY1 PHR domain (Arabidopsis thaliana) (UniProt Q43125). As to the kind of experiment: native MS; quantitative LILBID-MS (qLILBID-MS), label-free, in the dark; mean of three measurements.
Data set [7] concerns the target B1. The description is as above. As to conditions: both partners purified.
Data set [8] concerns the target B1. In words: native MS; quantitative LILBID-MS (qLILBID-MS), label-free, under blue light; mean of three measurements. As to conditions: both partners purified.

For “CRY1^L407F mutant of the Arabidopsis CRY1 PHR domain (from UniProt Q43125 1-681) (domain or fragment)”, the stoichiometry N in data set [1] and in data set [2] was 4 throughout.
Consider B1, for which the “half-life of tetramer formation (single-exponential fit)” value in data set [3] is ~18 s. Besides, the “stoichiometry N” value in data set [4] was 4. In data set [5], the “fold decrease of dimer dissociation rate with 100 µM ATP against no ATP” value is ~10 fold, the “fold decrease of tetramer dissociation rate with 100 µM ATP against no ATP” value was ~2 fold, the “fold increase of dimer-to-tetramer association rate with 100 µM ATP against no ATP” value is 4 fold and the “fold increase of monomer-to-dimer association rate with 100 µM ATP against no ATP” value is ~2 fold.

B2: Blue-light Inhibitor of Cryptochromes 1 (BIC1) (natural protein, UniProt Q9LXJ1 1-140, looked up)
chain: MMNIDDTTSPMAHPIGPSQPPSDQTKQDPPSLPQEAASSVSADKKDLALLEEKPKQSQEEDRVDTGRERLKKHRREIAGRVWIPEIWGQEELLKDWIDCSTFDTCLVPAGISSARTALVEEARRAASASGGLHNRCLILR
notes: The calculated mass may include a tag; Construct details probably stand in the Supporting Information
As to B2, the Kd was 100 nM in data set [6], ~1200 nM in data set [7] and 130 ± 90 nM in data set [8].
